Measured values published in the supplement of paper PMC9170038.

System: K4 kissing-loop RNA reporter
Test: apparent KD of K4 kissing-loop reporter; higher = weaker reporter binding
Details: Eterna round: R107; input ligand: FMN 200 uM
Protocol: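 RNA-MaP round R107: designed RNA switches with theophylline, tryptophan, arginine or FMN aptamers are transcribed on-chip within common flanks. They are titrated with a labelled K4 kissing-loop RNA reporter in RNA-MaP buffer (100 mM Tris pH 7.5, 80 mM KCl, 4 mM MgCl2), without ligand or with the indicated ligand. Median apparent KD per design.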
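Also: bound reporter read as fluorescence of individual clusters on recovered sequencing chips by microscopy, with normalized cluster intensities fitted with a binding model.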

| Sequence | apparent KD of K4 kissing-loop reporter [nM] |
| --- | --- |
| UGUCAUUGGUCGGCCGCCACUUCAAAAGGUCAAAGACCAGAGUGAUGUUCUUCACGAAACGUGAGAAGGACCGGGACCGAUGACU [TrypBS 12 #SwitchBubble #K4Middle] | 226 |
| UGAUAGGACAGAAGGAGCGGAAGUGAUGUUUCCAAAAGGGAAGGUCGACAAAGUCGACCCUUCCAGGUAGGUCGCUGUCCUAUCU [ArgBX 9 #Palindromic #SwitchBubble #StaticStem] | 75.9 |
| UGGAGUUGACGAAAAGUCAACUCCUGGGAAGGAGCGGACGAAAGUCCAGGUAGGUCGCUCACUACCAGUGAUGUUGGUACUAAAA | 144 |
| UAUUUAUUAACUGAUACCAGACUUAAUGAAUUGUAAAUUACUAGUGAUGUUAGUGAAUCUGUCCCUUGGCAGCAGUAUUUAUUAA [JR_Nu_ExcTheophyB_Sub028] | 111 |
| CCCGUGGGUUCGAGAGGGCUUGUGGGAAGUAAGGAUAUUUAGGGAGAAAGAAGGUACUAUAGAAUAUAGUGAUGUUAUAUAUGGG [#07 K4 FMN A Same State] | 402 |
| UUGGAGUGAUGUUCCAUAUCUUGAGCGGAAGGAGCGGCAAAAGUGCCAGGUAGGUCGCCGCAGAAGGUACCAGUGAUGUUGGAAA [Same State Arginine A GF 3] | 132 |
| UUUUAGGUAUCUGAUACCAGAGAAAAUAUAUGUAGUGAUGUUAUAUACAAAAUAAUUAAGCUCCCUUGGCAGCAGUUUUAAUUUU [AstrosExc-TheB#5] | 872 |
| AGUGUUAGGUUAGAUACCAGCCGUUCGUGAAUAAUCCUCGAACCGCCAGUGAUGUUGGCAGGCCCUUGGCAGCUAACAGAACAGA [Maxeusla] | 243 |
| UGAUUGCCAGUGAUGUUGGCAGUGACUGAAGGAGCGCGUGAAAACGCAGGUAGGUCGCAGUUGAGUGCCAAUUGAUCGAAAGAUC [KL-XArg-A5] | 286 |
| UAUAUAUGAUGUGAUACCAGUGAAAAGCCAGUGAUGUUGGAAGAACUGGUAUAUAAAUAACACCCUUGGCAGCACAAUCACGUAU [theophylline b exclusion] | 271 |
| UGUCAUGGAAACAUGAACGUUGAUGUUCGACGAGGACCGGUACGGCCGCCACUCGAGUAAUAGUCAGUGAUGUUGACUUGUCUAA [KL-SSTryp-A form1 sub3] | 74.2 |
| GGAGAGAACUGAAGGAGCGCCAAGAGAGAAGGAAAUAUAGUGAUGUUAUAUAAGAGAGAGAGGCAGGUAGGUCGCAGAGGGAGGA [#03 K4 Arginine B Exclusion] | 185 |
| UGUCAUUGGUCGGCCGCCACUUCGUGUAGAGUGAUGUUUUGUAGGACGGAUCGAAAGAUCUGUCGAAGGACCGGGACCGAUGACU [FiskerMod 18 - Jieux - Same State - Tryptophan B] | 500 |
| UGUGCCAACAGUGAUACCAGCGUGGAGUGAUGUUCCGAGGAUCGGAGUGAUGUUCCGAAGCGCCCUUGGCAGCGCAGAAGCGCGA [Exclusion Theophylline B GF 26] | 239 |
| ACCUACCAUUAGUGAUGUUAAUGGACGGAAGGAGCGCAGAUAUCUGCAGGUAGGUCGCCGAAGGCUAGACAUUGUCUAGCCAUUU [AK1.3 SS Arginine A] | 192 |
| UCCUGCAAUCUACCACGAAAGUGGAUGGAUACCAGAGUCGAAAGACUCCCUUGGCAGCCAGUGAUGUUGGAGCAGGUAAAAUAAA | 670 |
| GAGUGGCAGACGGCCGCCACUCUUAGCAGCCAGCGGAGUGAUGUUCCGCCCGAGUGAUGUUCGGAGAGGACCGGGUUUGUUGUAA [Exclusion Tryptophan B GF 29] | 119 |
| UGUUUUUACUGAAGGAGCGGCAAUUGAUACGUAGAUAUAGUGAUGUUAUAUAAGAUAGAGAGCCAGGUAGGUCGCAGAAUGAAUC [ExArgB.aD] | 209 |
| CAUAGACAAGUGAUGUUUGUCAUAACCGAAGGAGCGUCUUUAAAGACAGGUAGGUCGCGGAUUAGUUAAGUUAUGAUUCUUUAUG [#19 K4 Arginine A Same State] | 602 |
| GCAGUGAUGUUGCGCAUGUACAGUGGAGUGCGAGGACCGGUACGGCCGCCACUCGUACAGAACAAGCUAAUAUAUGGAUAGGUGA [IX] | 418 |
| ACGGGCGGCUGAAGGAGCGGGCGGGCCCGAGUGAUGUUCGGGUGGGCCGUGAGGUCCGGAGCCCAGGUAGGUCGCGGUUCCGCCU [#2 Same State - Arginine B Attempt #14 (HarryS)] | 157 |
| GUCAUCAGAUCGCAAGAUCUGAUAGCCGAUACCAGCGCGAAGGUGCGCCCUUGGCAGCGGCACCGAGUGAUGUUCGGUCAGACGA [#2 Same State - Theophylline A Attempt #5 (HarryS)] | 526 |

| Sequence | apparent KD of K4 kissing-loop reporter [nM] |
| --- | --- |
| CUAUGGAAACAUAGGAGUCGGGAAACCGAUACCAGUAUGGAAACAUACCCUUGGCAGCGGAAUGAUUCAACGGAGUGAUGUUCCG [Theophylline A K4 19] | 458 |
| AAUACAGUACAACCGAGUGGAACACAAAUACGAGGACCGGUACGGCCGCCACUCGUGCAGAAUUUCAGUGAUGUUGAAAUACUGC [Exclusion Tryptophan A GF 6] | 165 |
| AGUUCCUCUGUCGAUACCAGCUUCAGUUGGCGGCCAGUGAUGUUGGUAUCGCCGAUGCCAAGCCCUUGGCAGCGACAUGAGACCC [Lausso] | 188 |
| UUUUAAAUAUCUGAUACCAGAGAAAAUAUAUGUAGUGAUGUUAUAUACAAAAUAAUUAAGCUCCCUUGGCAGCAGUAUUAAUUUU [AstrosExc-TheB#3] | 612 |
| GUAGACGUACCUUCAGUGAUGUUGAAGGAUACCAGAUGUUACCACAUCCCUUGGCAGCCUUGGGAUAACAGUGAGUCGGAAUAUG [Uslediti] | 176 |
| UGUACCGAGUCAGGAUAUCAACGACUGACAAAAGUCGGUCGAAUAUCCAGUGAUGUUGGAAAUAAAUGAGAAGGGACUUGGUACU [FmnBS 14 #SwitchBubble #StaticStem] | 125 |
| GCGGGCCAGACGGCCGCCACUCCGGGCAGUGAUGUUGCGAAAAUUCUACUAGAGUGAUGUUCUACGAGGACCGGGUCGGAACGCG [Exclusion Tryptophan B Gf 12] | 370 |
| GCGGACAUUCGCAGUGAUGUUGCGACGGAAGGAGCGCGUGAAAACGCAGGUAGGUCGCCGACAAAAUUAAUUUUAAUGUGUUCGC [Arginine A K4 30] | 362 |
| UGUGUUGUUUUGAUGUUUGGUGUAAGUUGGCAGGAUAUCGUAGAGGCGAGAAGGGCUUUUAUGCGUUAUGAGUGAUGUUUGUAGG [zrrzmullin] | 640 |
| AGGCCCGGCCGAAAGGCCGGGCCAAGAGAUACCAGCAGCGAAAGCUGCCCUUGGCAGCUCACUUAGUGAUGUUAAGAGAUAAAUG [SS Theo A Tesla 1.2] | 365 |
| AGUGCACUGUCAGGAUAUAUACAGUGAUGUUGUGUAUGUCAGCAAGUCAAAGACUUGCUGUUCUGUGUAGAAGGGACUGUGUACA [Omei KL FMN B Exc A v3] | 911 |
| UCUGCAAAGUCGGCCGCCACUCCGGGCCCUAUAAAUGGGCGCAGUGAUGUUGCGGCUAGGCCUCUGAGGACCGGGACUUUAUAGA [Anarisgema] | 37.4 |
| GGGAAGUACGGAGGAUAUGCACUGAGGAGGAGAAUAUAGUGAUGUUAUAUAAGAGGAAGGAGAAGAGUAGAAGGCCGUGGAAAGG [SSFMNB.C] | 175 |
| AUUCAUUUCAGAGGAUAUCGCUGGAGAGUGAUGUUCUCCCAUAGUCAGUGAUGUUGGCUAGCUAUGCGAGAAGGCUGUGGGUGGA [Same State FMN B GF 28] | 143 |
| GCUCGGGAGUGAUGUUCCAAGUGGUGUUAACGAGGACCGGUACGGCCGCCACUCGAUACGGCCGGGCCGUAGGAUAAACUGGAGC [Same State - Tryptophan A (Freestyle 13)] | 193 |
| AGAGUUAUGCGAGGAUAUGCGGUUAGUACUCAAAGAGUACUAACAGCAGAGUGAUGUUCUGUGAAAGCAGAAGGUGCAUAACUCA [Omei KL FMN B SS B v10] | 153 |
| CUAAUCGCUCAUGAUACCAGCUAGUGAUGUUAGCCCGUCAAGCUGAGGGUUCAUCCACCCAGCCCUUGGCAGCAUUCUCGGUCAG [theeternabot_exclusion_KL_Theo_B_8] | 441 |
| GCCUAGCAGGGAAGGAGCGGCAUAAGCAUAGAUAAUAUGCAGUUAGUGAUGUUAAUACUAUGCCAGGUAGGUCGCCCUGCUAGGC [KL-SSArg B7] | 752 |
| AGACUACUGAUAGGAUAUAACAUACUAACUCGUAUACCAAAGGUAUACGAGACCCUUCUAGUGAUGUUAGAAGGGUCGGUAGUCA [Omei KL FMN B Exc B v6] | 82.2 |
| CGAUACGGAAAUACGUGUCUCUAUUCAGAAGGAGCGUGGUAGUACACAGGUAGGUCGCUGAAAUUUAAACUAGUGAUGUUAGACU [JR_SSArginiA_Sub004] | 1330 |
| CGAGUGAUGUUCGUUUUUUACUCUGUUUGACAGGAUAUGCGGAAACGCAGAAGGGUCACCUUUGAGUUAAACGGAGUUAUUUUUU [Ex FMN A 20] | 419 |

Same assay, conditions: Eterna round: R107; input ligand: arginine 13.2 mM

| Sequence | apparent KD of K4 kissing-loop reporter [nM] |
| --- | --- |
| UGUCAUUGGUCGGCCGCCACUUCAAAAGGUCAAAGACCAGAGUGAUGUUCUUCACGAAACGUGAGAAGGACCGGGACCGAUGACU [TrypBS 12 #SwitchBubble #K4Middle] | 123 |
| UGAUAGGACAGAAGGAGCGGAAGUGAUGUUUCCAAAAGGGAAGGUCGACAAAGUCGACCCUUCCAGGUAGGUCGCUGUCCUAUCU [ArgBX 9 #Palindromic #SwitchBubble #StaticStem] | 72.5 |
| UGGAGUUGACGAAAAGUCAACUCCUGGGAAGGAGCGGACGAAAGUCCAGGUAGGUCGCUCACUACCAGUGAUGUUGGUACUAAAA | 351 |
| UAUUUAUUAACUGAUACCAGACUUAAUGAAUUGUAAAUUACUAGUGAUGUUAGUGAAUCUGUCCCUUGGCAGCAGUAUUUAUUAA [JR_Nu_ExcTheophyB_Sub028] | 169 |
| CCCGUGGGUUCGAGAGGGCUUGUGGGAAGUAAGGAUAUUUAGGGAGAAAGAAGGUACUAUAGAAUAUAGUGAUGUUAUAUAUGGG [#07 K4 FMN A Same State] | 435 |
| UUGGAGUGAUGUUCCAUAUCUUGAGCGGAAGGAGCGGCAAAAGUGCCAGGUAGGUCGCCGCAGAAGGUACCAGUGAUGUUGGAAA [Same State Arginine A GF 3] | 152 |
| UUUUAGGUAUCUGAUACCAGAGAAAAUAUAUGUAGUGAUGUUAUAUACAAAAUAAUUAAGCUCCCUUGGCAGCAGUUUUAAUUUU [AstrosExc-TheB#5] | 730 |
| AGUGUUAGGUUAGAUACCAGCCGUUCGUGAAUAAUCCUCGAACCGCCAGUGAUGUUGGCAGGCCCUUGGCAGCUAACAGAACAGA [Maxeusla] | 216 |
| UGAUUGCCAGUGAUGUUGGCAGUGACUGAAGGAGCGCGUGAAAACGCAGGUAGGUCGCAGUUGAGUGCCAAUUGAUCGAAAGAUC [KL-XArg-A5] | 275 |
| UAUAUAUGAUGUGAUACCAGUGAAAAGCCAGUGAUGUUGGAAGAACUGGUAUAUAAAUAACACCCUUGGCAGCACAAUCACGUAU [theophylline b exclusion] | 261 |
